Measured values from patent US20250345451A1.

Experiments:
[1] = molecular target: Human TGF-β1 (acrobiosystems, TG1-H421) (human) (UniProt P01137)
[2] = molecular target: Human TGF-β1 (acrobiosystems, TG1-H421) (human) (UniProt P01137); experiment: ELISA on coated human TGF-β1, anti-human Fc-HRP, absorbance at 450 nm (top panel)
[3] = molecular target: Human TGF-β3 (PeproTech, 100-36E) (human) (UniProt P10600); experiment: ELISA on coated human TGF-β3, anti-human Fc-HRP, absorbance at 450 nm (bottom panel)
Chain of Human TGF-β3 (PeproTech, 100-36E) (human) (P10600 301-412 limits assumed): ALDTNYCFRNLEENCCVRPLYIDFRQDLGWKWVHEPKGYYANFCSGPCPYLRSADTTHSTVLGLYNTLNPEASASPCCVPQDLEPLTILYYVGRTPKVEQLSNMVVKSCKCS

[4] = molecular target: human PD-L1 on CHO-hPD-L1 cells (human) (UniProt Q9NZQ7); experiment: flow cytometry on CHO cells overexpressing human PD-L1, median fluorescence intensity PE-A
Chain of human PD-L1 on CHO-hPD-L1 cells (human) (Q9NZQ7 19-290): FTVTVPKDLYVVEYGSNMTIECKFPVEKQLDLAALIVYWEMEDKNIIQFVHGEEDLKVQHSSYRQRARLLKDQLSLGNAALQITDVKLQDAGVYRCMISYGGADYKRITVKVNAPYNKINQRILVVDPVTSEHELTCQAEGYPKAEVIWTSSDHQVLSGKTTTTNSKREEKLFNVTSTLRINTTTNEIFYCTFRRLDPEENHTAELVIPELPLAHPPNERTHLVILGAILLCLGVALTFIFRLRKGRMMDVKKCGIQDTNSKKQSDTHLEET

[5] = molecular target: biotinylated human PD-L1 protein (purchased from AcroBiosystems) (human) (UniProt Q9NZQ7); experiment: blocking assay by flow cytometry: PD-L1 protein pre-incubated with the sample, binding to human PD-1 on CHO-hPD-1 cells
Chain of biotinylated human PD-L1 protein (purchased from AcroBiosystems) (human) (Q9NZQ7 19-238 limits assumed): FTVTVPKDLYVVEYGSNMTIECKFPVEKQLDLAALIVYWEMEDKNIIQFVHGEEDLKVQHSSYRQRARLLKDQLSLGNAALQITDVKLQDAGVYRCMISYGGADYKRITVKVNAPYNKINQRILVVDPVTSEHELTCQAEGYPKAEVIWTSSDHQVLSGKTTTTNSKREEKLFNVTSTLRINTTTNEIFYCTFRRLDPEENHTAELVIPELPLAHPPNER

[6] = molecular target: human PD-L1 on CHO-hPD-L1 cells (human) (UniProt Q9NZQ7); experiment: flow cytometry on CHO-hPD-L1 cells, PE anti-human IgG-Fc; table under the lower panel prints no unit, concentration axis is in nM

Chain of Human TGF-β1 (acrobiosystems, TG1-H421) (human) (P01137 279-390 limits assumed): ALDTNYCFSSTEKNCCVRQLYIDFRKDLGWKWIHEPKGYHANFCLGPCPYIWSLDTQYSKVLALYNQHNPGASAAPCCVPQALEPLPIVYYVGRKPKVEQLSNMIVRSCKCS

Row | IC50 (read off the curve) [1] [nM] | EC50 (read off the curve) [2] [nM] | EC50 (read off the curve) [3] [nM] | EC50 (read off the curve) [4] [nM] | IC50 (read off the curve) [5] [nM] | EC50 [6] [nM] | Substance
1 | 0.3 | 1 | 0.6 | 3 | 4 |  | M7824
2 |  |  |  |  |  | 2.27 | … (atezolizumab) (antibody)
3 | 0.4 | 0.8 | 0.6 |  |  |  | TGF-βR2-Fc (Fc fusion)
